Literature values as cited in PMC6085760.

Target: Amyloid-β (Homo sapiens) (UniProt P05067)
Sequence (P05067 672-711): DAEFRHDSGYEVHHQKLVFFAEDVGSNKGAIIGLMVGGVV

LPFFD peptide
Kd: 156 µM
